Laboratory results published in patent publication US20210301021A1 (NANJING GENSCRIPT BIOTECH, published 2021).
Numbering of substitutions follows the chain as printed.

T1: human CTLA4-Fc recombinant protein (human, UniProt P16410 36-161)
T1 construct: not shown: Fc part
T1 sequence (looked up): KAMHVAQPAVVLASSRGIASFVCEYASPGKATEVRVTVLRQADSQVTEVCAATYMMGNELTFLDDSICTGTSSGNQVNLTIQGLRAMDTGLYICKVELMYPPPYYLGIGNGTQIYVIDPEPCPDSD

T2: CTLA4/His (human, UniProt P16410 36-161)
T2 construct: not shown: His tag
T2 sequence (looked up): T1 sequence (looked up)

T3: CTLA-4 on the functional cells of the Promega anti-CTLA-4 blocking assay kit (UniProt P16410 36-223, limits assumed)
T3 sequence (looked up): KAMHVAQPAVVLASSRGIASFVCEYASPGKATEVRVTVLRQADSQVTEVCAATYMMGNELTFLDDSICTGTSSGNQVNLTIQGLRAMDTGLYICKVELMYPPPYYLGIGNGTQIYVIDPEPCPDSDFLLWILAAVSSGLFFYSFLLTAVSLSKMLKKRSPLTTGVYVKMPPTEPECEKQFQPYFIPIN

B1: AH01679 (prokaryotic expression antibody product, 5BM library) (Fab, V domains shown)
VH: QVQLVQSGAEVVKPGASVKLSCKASGYTFTSYWINWVRQAPGQGLEWIGRIAPGSGTTYYNEMFTGRVTMTRDTSTSTVYMELSSLRSEDTAVYYCARGDYFDYWGQGTMVTVSS
VL: DIQLTQSPSFLSASVGDRVTITCSASKSVSYIHWYQQKPGKAPKLLIYDTSTLASGVPSRFSGSGSGTEFTLTISSLQPEDFATYYCQQRTTYPLTFGQGTKLEIK
notes: Prokaryotic expression product from Phage-Fab / FASEBA-Fab plasmids
B2: AH01674 (prokaryotic expression antibody product, CBM library) (Fab, V domains shown)
VH: B1 VH with V12K, L20V, I48M, V79A
VL: B1 VL with S59P, T68P
notes: as for B1
B3: AH01696 (prokaryotic expression antibody product, 5BM library) (Fab, V domains shown)
VH: VQLVQSGAEVVKPGASVKVSCKASGYTFTSYWINWIRQAPGQGLEWIGRIAPGSGTTYYNEMFTGRVTLTRDTSTSTAYMELSSLRSEDTAVYYCARGDYFDYWDQGTMVTVSS
VL: B1 VL with Y35F, F70Y
notes: as for B1
B4: AH01653 (prokaryotic expression antibody product, CBM library) (Fab, V domains shown)
VH: B1 VH with Q3H, V12K, L20V, R38K, I48M, V79A, G106D
VL: B1 VL with T68P, F70Y, Q99G
B5: AH01672 (prokaryotic expression antibody product, CBM library) (Fab, V domains shown)
VH: B1 VH with V12K, L20V, R38K, I48M, V79A, G106D
VL: B1 VL with S59P, T68P, T71S, Q99G
notes: as for B1
B6: AH01704 (prokaryotic expression antibody product, 5BM library) (Fab, V domains shown)
VH: B1 VH with L20V, R38K, I48M, M70L, V79A, Y95F
VL: B1 VL with F70Y
notes: as for B1
B7: AH01686 (prokaryotic expression antibody product, 5BM library) (Fab, V domains shown)
VH: B1 VH with L20V, V37I, R38K, M70L, V79A, M81I, Y95F
VL: B1 VL
notes: as for B1
B8: AH01695 (prokaryotic expression antibody product, 5BM library) (Fab, V domains shown)
VH: B1 VH with V12K, L20V, I48M, M70L, V79A, M81I, Y95F, R98I
VL: B1 VL
notes: as for B1
B9: Chimeric antibody (antibody, V domains shown)
VH: QVHLQQSGDVLVKPGASVNLSCKASGYTFTSYWINWIKQRPGQGLEWIGRIAPGSGTTYYNEMFTGKATLTVVTSSTTAYIQLSSLSFEDSAVYFCARGDYFDYWDQGTTLTVSS
VL: QIVLTQSPAIMSASPGGKVTITCSASKSVSYIHWFQQKPGTSPKLLIYDTSTLASGVPPRFSGSGSGPSYSLTISRMEAEDAATYYCQQRTTYPLTFGGGTKLEVR
notes: also called Chimeric IgG
B10: AH01674 humanized anti-human CTLA4 monoclonal antibody (human IgG1/kappa) (antibody, V domains shown)
VH: B1 VH with V12K, L20V, I48M, V79A
VL: B1 VL with S59P, T68P
notes: also called AH1674
B11: AH01696 humanized anti-human CTLA4 monoclonal antibody (human IgG1/kappa) (antibody, V domains shown)
VH: B3 VH
VL: B1 VL with Y35F, F70Y
B12: AH01686 humanized anti-human CTLA4 monoclonal antibody (human IgG1/kappa) (antibody, V domains shown)
VH: B1 VH with L20V, V37I, R38K, M70L, V79A, M81I, Y95F
VL: B1 VL
B13: AH01679 humanized anti-human CTLA4 monoclonal antibody (human IgG1/kappa) (antibody, V domains shown)
VH: B1 VH
VL: B1 VL
notes: also called AH1679
B14: AH01695 humanized anti-human CTLA4 monoclonal antibody (human IgG1/kappa) (antibody, V domains shown)
VH: B1 VH with V12K, L20V, I48M, M70L, V79A, M81I, Y95F, R98I
VL: B1 VL
notes: also called AH1695
B15: AH01704 humanized anti-human CTLA4 monoclonal antibody (human IgG1/kappa) (antibody, V domains shown)
VH: B1 VH with L20V, R38K, I48M, M70L, V79A, Y95F
VL: B1 VL with F70Y
B16: AH01672 humanized anti-human CTLA4 monoclonal antibody (human IgG1/kappa) (antibody, V domains shown)
VH: B1 VH with V12K, L20V, R38K, I48M, V79A, G106D
VL: B1 VL with S59P, T68P, T71S, Q99G
notes: also called AH1672
B17: Chimeric antibody AAPH (chimeric antibody after the oxidation pressure test) (antibody, V domains shown)
VH: B9 VH
VL: B9 VL
modifications: Met 63 oxidised in 62.144% of the sample (AAPH, 40 C, 24 h)
notes: Same protein as the chimeric antibody, treated with AAPH; also called Chimeric antibody AAPH-24 h
B18: AH01674 AAPH (AH01674 after the oxidation pressure test) (antibody, V domains shown)
VH: B1 VH with V12K, L20V, I48M, V79A
VL: B1 VL with S59P, T68P
modifications: Met 63 oxidised in 75.616% of the sample (AAPH, 40 C, 24 h)
notes: Human IgG1/kappa, treated with AAPH; also called AH01674 AAPH-24 h
B19: AH01695 AAPH (AH01695 after the oxidation pressure test) (antibody, V domains shown)
VH: B1 VH with V12K, L20V, I48M, M70L, V79A, M81I, Y95F, R98I
VL: B1 VL
modifications: Met 63 oxidised in 70.898% of the sample; Met 250 (constant region of the heavy chain) oxidised in 26.143% (AAPH, 40 C, 24 h)
notes: Human IgG1/kappa, treated with AAPH; also called AH01695 AAPH-24 h

What follows are binders tested against T1, human CTLA4-Fc recombinant protein (assay: kinetics of the prokaryotic expression product, analyte CTLA4/Fc, 1:1 binding model; prokaryotic expression product, analyte CTLA4/Fc (Table 2)).

Row | Binder | koff [s⁻¹]
1 | B1 | < 1e-05

These binders were tested against T1, human CTLA4-Fc recombinant protein (assay: kinetics of the prokaryotic expression product, analyte CTLA4/Fc, 1:1 binding model).

Row | Binder | Kd [pM]
2 | B2 | 15.4
3 | B3 | 0.00373
4 | B1 | 0.0431
5 | B4 | 14.9
6 | B5 | 14.5
7 | B6 | 0.019
8 | B7 | 0.0433
9 | B8 | 0.0106

These binders were tested against T2, CTLA4/His (assay: SPR, Biacore 8K, antibody captured on the chip, antigen as analyte, 1:1 binding model).

Row | Binder | Kd [pM] | kon [M⁻¹ s⁻¹] | koff [s⁻¹]
10 | B9 | ≤ 23 | 434000 | 
11 | B10 | ≤ 14.2 | 705000 | ≤ 1e-05
12 | B11 | 42.9 | 646000 | 2.77e-05
13 | B12 | 38.8 | 820000 | 3.18e-05
14 | B13 | ≤ 13.4 | 748000 | ≤ 1e-05
15 | B14 | ≤ 15.3 | 655000 | ≤ 1e-05
16 | B15 | 14.4 | 780000 | 1.12e-05
17 | B16 | ≤ 14.5 |  | ≤ 1e-05

What follows are binders tested against T2, CTLA4/His (assay: SPR (Biacore), untreated control of the oxidation pressure test, analyte CTLA4/His).

Row | Binder | Kd [pM] | koff [s⁻¹] | kon [M⁻¹ s⁻¹]
18 | B9 | 21.9 | 8.16e-06 | 372000
19 | B10 | 39.5 | 2.98e-05 | 753000
20 | B14 | 59.4 | 4.55e-05 | 767000

The binders below were run against T2, CTLA4/His (assay: SPR (Biacore), after AAPH oxidation, analyte CTLA4/His).

Row | Binder | Kd [pM] | koff [s⁻¹] | kon [M⁻¹ s⁻¹]
21 | B17 | 48.7 | 2.78e-05 | 570000
22 | B18 | 30.5 | 2.19e-05 | 719000
23 | B19 | 131 | 8.75e-05 | 670000

These binders were tested against T3, CTLA-4 on the functional cells of the … (assay: cell-based or functional assay).

Row | Binder | EC50 (µg/ml), luciferase reporter, Promega anti-CTLA-4 blocking assay (CD80/CD86 aAPC/Raji cells with functional cells expressing CTLA-4) [µg/mL]
24 | B9 | 3.96
25 | B10 | 1.11
26 | B13 | 17.1
27 | B14 | 5.46
28 | B16 | 7.31

These binders were tested against T2, CTLA4/His (assay: SPR, Biacore 8K, antibody captured on the chip, antigen as analyte, 1:1 binding model; chimeric antibody, analyte CTLA4/His (Table 4)).

Row | Binder | koff [s⁻¹]
29 | B9 | ≤ 1e-05

The binders below were run against T2, CTLA4/His (assay: SPR, Biacore 8K, antibody captured on the chip, antigen as analyte, 1:1 binding model; Table 4, analyte CTLA4/His; Rmax 38.2, Chi^2 5.48E-02).

Row | Binder | kon [M⁻¹ s⁻¹]
30 | B16 | 690000
